Values quoted from earlier work, collected in PMC8355678.

Tests used:
[1] = molecular target: CCL2 receptor on monocytes (Homo sapiens) (UniProt P41597)
CXCR3 (Homo sapiens) = CXCR3 (Homo sapiens) (UniProt P49682)
UniProt P49682, sequence (P49682 whole entry): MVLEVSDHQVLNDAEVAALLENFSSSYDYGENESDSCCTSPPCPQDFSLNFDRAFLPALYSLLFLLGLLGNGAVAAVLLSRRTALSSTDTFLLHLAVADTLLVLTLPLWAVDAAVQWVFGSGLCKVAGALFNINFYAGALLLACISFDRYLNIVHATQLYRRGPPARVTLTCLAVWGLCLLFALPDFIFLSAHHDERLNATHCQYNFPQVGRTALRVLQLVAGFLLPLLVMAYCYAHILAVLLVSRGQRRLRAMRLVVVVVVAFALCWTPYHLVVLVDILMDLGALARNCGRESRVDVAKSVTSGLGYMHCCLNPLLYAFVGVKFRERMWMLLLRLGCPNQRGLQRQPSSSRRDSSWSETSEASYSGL

CCL2, sequence (P13500 24-99): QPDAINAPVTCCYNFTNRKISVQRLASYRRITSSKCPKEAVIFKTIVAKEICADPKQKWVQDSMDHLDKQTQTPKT
UniProt P41597, sequence (P41597 whole entry): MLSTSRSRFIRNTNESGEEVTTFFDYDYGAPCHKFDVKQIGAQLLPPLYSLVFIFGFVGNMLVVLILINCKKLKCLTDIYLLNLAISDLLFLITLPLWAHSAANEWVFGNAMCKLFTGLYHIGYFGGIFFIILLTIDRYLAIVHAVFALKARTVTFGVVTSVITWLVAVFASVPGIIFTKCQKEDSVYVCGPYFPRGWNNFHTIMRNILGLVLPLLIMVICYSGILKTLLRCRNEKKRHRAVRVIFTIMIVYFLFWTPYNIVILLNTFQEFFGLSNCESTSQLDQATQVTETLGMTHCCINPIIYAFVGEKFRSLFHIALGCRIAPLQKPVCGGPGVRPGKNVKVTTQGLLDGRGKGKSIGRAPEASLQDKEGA

Kd (CXCR3 (Homo sapiens)) [nM] | Substance | Kd [1] [nM]
 | CCL2 (from UniProt P13500) | 0.77
0.25 | CXCL10 (from UniProt P02778) | 
